From patent US8877206B2, “Stimulation of an immune response by cationic lipids” (PDS Biotechnology Corporation, priority 2007, dated 2014)
Ends that are not written are not given here.

Legend:
[1] = Peptide entrapment efficiency in DOTAP liposomes (LavaPep); format: physicochemical; conditions: molar ratio lipopeptide: DOTAP = 1:40, mean±SD (n=3)
Protocol: Cationic lipid/antigen complexes were prepared as described above. Peptide encapsulation efficiency was determined by the percentage of the liposome-bound peptide using LavaPep™ peptide quantification kit (commercially available from Fluorotechnics of Sydney, Australia). Since unincorporated lipopeptide aggregated and could not pass the exclusion filter, the incorporated lipopeptide was measured as the amount associated with the extruded liposomes in the presence of 1% SDS and reported as the mean±SD (n=3). For water-soluble peptide such as native E7 and KSS-E7, the unbound peptide was separated from the complex by a Microcon® centrifugal filtration device (commercially available from Millipore of Bedford, Mass.). The concentration of the unbound peptide was measured using LavaPep™ according to the manufacturer's instruction.

CD8+ T cells = assay: IFN-γ producing CD8+ T cells in spleen after immunization; format: in vivo, mice; conditions: formulated in DOTAP liposomes; 5 nmol peptide; FIG. 12
[2] = target: T1, H-2K^b molecules on RMA-S cells (Mus musculus, UniProt P01901); assay: MHC class I binding on RMA-S cells, H-2K^b; format: cell-based; conditions: peptide 10 μM
T1 construct: endogenous in cells; host or cells: RMA-S mouse lymphoma cells
T1 sequence (P01901 22-369): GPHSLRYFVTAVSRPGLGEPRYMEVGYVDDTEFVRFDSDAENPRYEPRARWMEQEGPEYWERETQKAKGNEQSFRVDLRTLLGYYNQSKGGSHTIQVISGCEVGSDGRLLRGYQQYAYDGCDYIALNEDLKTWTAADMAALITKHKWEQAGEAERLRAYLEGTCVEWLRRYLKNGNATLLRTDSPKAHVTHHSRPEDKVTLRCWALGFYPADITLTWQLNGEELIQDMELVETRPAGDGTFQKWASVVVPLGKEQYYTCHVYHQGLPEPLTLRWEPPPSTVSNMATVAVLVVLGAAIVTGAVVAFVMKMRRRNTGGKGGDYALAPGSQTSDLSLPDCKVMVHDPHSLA
T1 sequence (P01887 21-119 partner): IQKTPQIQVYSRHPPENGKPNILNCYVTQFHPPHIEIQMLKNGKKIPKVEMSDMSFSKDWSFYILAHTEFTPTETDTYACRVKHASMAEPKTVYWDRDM

[3] = target: T2, H-2D^b molecules on RMA-S cells (Mus musculus, UniProt P01899); assay: MHC class I binding on RMA-S cells, H-2D^b; format: cell-based; conditions: peptide 10 μM, overnight 27° C. then 2 h 37° C.; FIG. 13
T2 construct: it caused a four-fold up-regulation of H-2D^b molecules on RMA-S cells compared to the control; endogenous in cells; host or cells: RMA-S mouse lymphoma cells
T2 sequence (P01899 25-362): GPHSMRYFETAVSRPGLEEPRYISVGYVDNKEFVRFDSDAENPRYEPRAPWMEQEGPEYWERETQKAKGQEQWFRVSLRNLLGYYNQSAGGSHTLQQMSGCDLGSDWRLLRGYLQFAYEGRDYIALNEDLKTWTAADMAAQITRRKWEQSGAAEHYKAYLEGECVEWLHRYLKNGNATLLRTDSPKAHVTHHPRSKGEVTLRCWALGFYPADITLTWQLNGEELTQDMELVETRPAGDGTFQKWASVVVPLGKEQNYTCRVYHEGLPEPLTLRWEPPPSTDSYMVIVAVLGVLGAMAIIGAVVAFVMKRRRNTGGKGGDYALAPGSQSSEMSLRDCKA
T2 sequence (P01887 21-119 partner): T1 sequence (P01887 21-119 partner)

TC-1 tumor = assay: TC-1 HPV-positive tumor growth in treated mice; format: in vivo, C57BL/6 mice; conditions: formulated in the DOTAP/antigen complex; FIG. 11
[4] = E7 peptide association with the liposome; format: physicochemical; conditions: 0.7 mg lipids and 0.1 mg E7 per mL (molar ratio=11:1)
Protocol: All lipids were purchased from Avanti Polar Lipids (Alabaster Ala.). Small unilamellar DOTAP, DOEPC, and DOTMA liposomes were prepared by thin film hydration followed by extrusion. The lipid, with or without a drug, in chloroform was dried as a thin layer under a stream of nitrogen in a glass tube. The thin film was vacuum desiccated for 2-3 h and then re-hydrated in cell culture grade water (commercially available from Cambrex of Walkersville, Md.) or buffer containing E7 peptide to a final concentration of 0.7 mg lipids and 0.1 mg E7 per mL (molar ratio=11:1). The lipid dispersion was sequentially extruded through polycarbonate membranes with pore size of 0.4, 0.2 and 0.1 μm. The un-entrapped peptide was not removed. The liposomes were stored at 4° C. until use. E7 peptide association with the liposome was determined by measuring the percentage of liposome-bound peptide. In brief, unbound E7 peptide from DOTAP/E7 or DOTAP/E7/drug (MAP kinase inhibitor) complexes was separated by a Microcon® centrifugal filtrate devices (Millipore, Bedford, Mass.) and the concentration of unbound peptide was measured by Micro BC™ Protein Assay Kit (Pierce, Rockford, Ill. The efficiency of peptide association was determined as percent […] peptide. Approximately 30% of E7 peptide was associated with the liposomes.

KSS-E7: E7 peptide RAHYNIVTF elongated with KSS (lysine-serine-serine) spacer, no lipid (not fully specified (N-terminus); also: KSS spacer added, end not given here)
Entrapment efficiency (%) [1]: 26.4 ± 6.1%
Number of IFN-γ producing CD8+ cells vs native E7 in DOTAP liposomes (CD8+ T cells): superior result than the native E7
Up-regulation of H-2K^b molecules [2]: No up-regulation
Up-regulation of H-2D^b molecules (mean fluorescence) compared to the control [3]: 8 fold
Anti-tumor activity compared with native E7 (TC-1 tumor): superior anti-tumor activity

RAHYNIVTF [Native E7]
Entrapment efficiency (%) [1]: 27.1 ± 5.8%
Entrapment efficiency (%) ([1]; listed as E7): about 25%
E7 peptide associated with the liposomes [4]: Approximately 30%
Up-regulation of H-2K^b molecules [2]: No up-regulation
Up-regulation of H-2D^b molecules (mean fluorescence) compared to the control [3]: four-fold
